Test results published in publication PMC3708532 (RNA, 2013).
Values joined by “and” are separate entries in the source; they are usually repeats but may differ in a detail not shown here. Equal entries are not always repeated.

What was measured:
[1] = target: the molecule itself; test: negative-stain electron microscopy
cross-linking = target: the molecule itself; test: cross-linking

B1: Schmallenberg virus (SBV) nucleocapsid (N) protein (natural protein)
chain: MSSQFIFEDVPQRNAATFNPEVGYVAFIGKYGQQLNFGVARVFFLNQKKAKMVLHKTAQPSVDLTFGGVKFTVVNNHFPQYVSNPVPDNAITLHRMSGYLARWIADTCKASVLKLAEASAQIVMPLAEVKGCTWADGYTMYLGFAPGAEMFLDAFDFYPLVIEMHRVLKDNMDVNFMKKVLRQRYGTMTAEEWMTQKITEIKAAFNSVGQLAWAKSGFSPAARTFLQQFGINI
stoichiometry N [1]: 4 and 5
stoichiometry N (cross-linking): 3
